The values below come from patent US20220213181A1 (Novartis, published 2022).

Assay [1] addresses T1, Human ANGPTL3(17-460)-FLAG-His-Avi (human, UniProt Q9Y5C1 17-460, biotin on the C-terminal Avi tag (BirA)).
T1 construct: also called full length human ANGPTL3; hANGPTL3
T1 sequence: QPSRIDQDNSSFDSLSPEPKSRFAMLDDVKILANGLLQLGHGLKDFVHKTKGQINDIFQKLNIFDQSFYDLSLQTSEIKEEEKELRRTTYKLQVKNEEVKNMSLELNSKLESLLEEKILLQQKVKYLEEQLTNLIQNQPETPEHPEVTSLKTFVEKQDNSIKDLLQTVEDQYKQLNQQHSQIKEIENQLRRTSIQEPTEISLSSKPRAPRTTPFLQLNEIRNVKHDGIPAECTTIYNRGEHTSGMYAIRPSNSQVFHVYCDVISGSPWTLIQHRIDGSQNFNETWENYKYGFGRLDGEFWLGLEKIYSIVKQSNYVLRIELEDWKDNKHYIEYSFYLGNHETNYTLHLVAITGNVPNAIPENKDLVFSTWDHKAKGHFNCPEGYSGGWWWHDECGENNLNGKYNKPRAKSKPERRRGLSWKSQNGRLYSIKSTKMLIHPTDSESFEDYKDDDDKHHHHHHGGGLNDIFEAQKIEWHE
Nature of the assay: Octet (ForteBio) kinetics, biotinylated antigen on streptavidin sensor, IgG in solution; no binding at 25 nM. On the technique in general: BLI is a label-free optical method that tracks binding on a fibre tip over time.

For assay [2], the target named is T2, Rat ANGPTL4(24-405)-FLAG-His6-Avi (rat, UniProt Q6TMA8 24-405, biotin on the C-terminal Avi tag (BirA) where the protein is immobilised).
T2 sequence: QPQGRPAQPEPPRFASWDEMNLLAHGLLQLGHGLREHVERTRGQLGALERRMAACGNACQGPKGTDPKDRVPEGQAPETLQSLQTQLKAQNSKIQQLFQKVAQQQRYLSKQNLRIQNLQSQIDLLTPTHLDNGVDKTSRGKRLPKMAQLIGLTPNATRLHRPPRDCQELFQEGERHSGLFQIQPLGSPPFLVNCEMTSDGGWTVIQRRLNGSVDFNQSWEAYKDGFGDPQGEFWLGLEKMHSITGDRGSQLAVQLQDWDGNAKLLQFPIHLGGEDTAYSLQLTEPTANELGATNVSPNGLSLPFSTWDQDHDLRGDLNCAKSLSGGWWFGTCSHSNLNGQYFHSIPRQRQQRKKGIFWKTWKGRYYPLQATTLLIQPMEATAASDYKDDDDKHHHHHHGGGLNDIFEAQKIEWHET
Nature of the assay: Octet (ForteBio) kinetics; average KD of the runs; Octet kinetics; average KD of the three rat runs.

In assay [3] the target is T3, Mouse ANGPTL4(26-410)-FLAG-His6-Avi (mouse, UniProt Q9Z1P8 24-410, biotin on the C-terminal Avi tag (BirA) where the protein is immobilised).
T3 sequence: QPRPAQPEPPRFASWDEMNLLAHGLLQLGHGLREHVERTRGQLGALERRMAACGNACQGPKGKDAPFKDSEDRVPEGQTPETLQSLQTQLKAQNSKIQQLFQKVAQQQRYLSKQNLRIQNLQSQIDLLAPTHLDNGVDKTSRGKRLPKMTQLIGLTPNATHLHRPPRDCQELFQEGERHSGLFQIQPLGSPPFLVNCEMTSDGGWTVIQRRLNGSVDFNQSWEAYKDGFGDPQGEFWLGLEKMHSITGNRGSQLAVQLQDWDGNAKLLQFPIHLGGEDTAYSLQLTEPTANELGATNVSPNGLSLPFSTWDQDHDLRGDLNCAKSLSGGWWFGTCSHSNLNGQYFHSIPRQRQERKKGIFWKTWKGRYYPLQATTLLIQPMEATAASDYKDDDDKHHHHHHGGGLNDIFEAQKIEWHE
Nature of the assay: Octet (ForteBio) kinetics, biotinylated antigen on streptavidin sensor, IgG in solution; Octet kinetics, mouse ANGPTL4 on the sensor, antibody up to 25 nM; run 2.

Assay [4] has as its target T1, Human ANGPTL3(17-460)-FLAG-His-Avi. Nature of the assay: Octet (ForteBio) kinetics; average KD of the runs; no binding at 25 nM.
Assay [5] has as its target T4, Human ANGPTL4(26-406)-FLAG-His6-Avi (human, UniProt Q9BY76 24-406, biotin on the C-terminal Avi tag (BirA) where the protein is immobilised).
T4 construct: the text calls it 20 amino acids), then QP, ANGPTL4 26-406 and FLAG-His6-Avi; the signal peptide is left out here; also called full length human ANGPTL4; hANGPTL4
T4 sequence: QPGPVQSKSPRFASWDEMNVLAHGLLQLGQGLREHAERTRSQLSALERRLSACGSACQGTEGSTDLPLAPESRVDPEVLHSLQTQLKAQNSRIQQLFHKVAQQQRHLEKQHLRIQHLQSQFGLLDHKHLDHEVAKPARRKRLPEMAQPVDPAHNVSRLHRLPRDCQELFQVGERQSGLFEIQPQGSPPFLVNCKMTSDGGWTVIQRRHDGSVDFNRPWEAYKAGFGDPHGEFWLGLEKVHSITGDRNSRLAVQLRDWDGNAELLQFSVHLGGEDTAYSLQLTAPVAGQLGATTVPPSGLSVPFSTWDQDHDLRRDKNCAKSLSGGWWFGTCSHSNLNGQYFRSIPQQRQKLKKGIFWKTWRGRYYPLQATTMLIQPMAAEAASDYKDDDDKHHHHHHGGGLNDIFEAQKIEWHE
Briefly: Octet (ForteBio) kinetics, biotinylated antigen on streptavidin sensor, IgG in solution; slower than the limit of detection (about 5e-6 s^-1). On the procedure:
Dissociation constants (KD) were determined for selected antibodies of the invention by using an Octet (ForteBio) kinetic binding assay. ForteBio 10× Kinetics Buffer (ForteBio, catalog number 18-5032) was diluted 10-fold with DPBS (Life Technologies, catalog number 14190-136), and the resulting solution was added (0.2 ml per well) to a 96-well plate (Greiner, catalog number 65520). Streptavidin sensors (ForteBio, catalog number 18-5020) were immersed in the solution and equilibrated for at least 10 min at room temperature. In a second 96-well plate (Greiner, catalog number 65520), sensors were washed in 1× Kinetics buffer, and then immersed in 200 ul of 25 nM biotinylated human ANGPTL4 or a biotinylated reference protein (for background subtraction) for 1000 sec at […] room temperature. […] The sensors were then transferred to a well containing 200 μl 1× Kinetics buffer, and antibody dissociation was monitored for 1200 seconds. Background-corrected association and dissociation curves were globally fitted by Octet Software (ForteBio) to generate association (kₐ) and dissociation (kd) rate constants, which in turn were used to calculate equilibrium dissociation constants (KD).

B1: NEG276-LALA (antibody, human IgG1, kappa, L234A L235A)
heavy: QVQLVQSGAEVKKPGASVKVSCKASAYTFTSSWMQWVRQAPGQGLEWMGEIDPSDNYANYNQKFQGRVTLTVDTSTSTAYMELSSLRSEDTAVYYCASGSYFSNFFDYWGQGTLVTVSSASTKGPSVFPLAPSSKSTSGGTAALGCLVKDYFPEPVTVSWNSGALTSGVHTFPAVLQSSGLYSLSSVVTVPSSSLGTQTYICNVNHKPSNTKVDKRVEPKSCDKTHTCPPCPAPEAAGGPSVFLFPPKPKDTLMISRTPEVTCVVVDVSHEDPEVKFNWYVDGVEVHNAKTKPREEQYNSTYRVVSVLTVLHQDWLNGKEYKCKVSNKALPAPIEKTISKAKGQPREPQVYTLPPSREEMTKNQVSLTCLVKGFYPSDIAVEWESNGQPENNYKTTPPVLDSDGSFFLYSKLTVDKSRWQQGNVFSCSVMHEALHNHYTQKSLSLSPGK
light: EIVMTQSPATLSVSPGERATLSCKASQDIGSNLNWLQQKPGQAPRRLIYAVSNRGPGIPARFSGSRSGSEYTLTISSLQSEDFAVYYCLQYASSPWTFGQGTKVEIKRTVAAPSVFIFPPSDEQLKSGTASVVCLLNNFYPREAKVQWKVDNALQSGNSQESVTEQDSKDSTYSLSSTLTLSKADYEKHKVYACEVTHQGLSSPVTKSFNRGEC
Usually Kd stands for the constant that tells how readily two partners part at equilibrium. Read a low Kd as a tighter complex. What is called koff is the rate constant with which the complex falls apart. A higher koff goes with fast dissociation. As a reminder, the kon is the rate constant with which the complex forms. High values mean faster complex formation, low ones slower complex formation. As for B1, the Kd was above 6 nM in assay [1], 6.34 nM in assay [2] and above 6 nM in assay [4]. In assay [3], the koff stood at 0.0018 s⁻¹. In assay [3], this molecule displayed a kon of 430000 M⁻¹ s⁻¹.

B2: NEG278 (antibody, human IgG1, kappa, V domains shown)
VH: QVQLVQSGAEVKKPGASVKVSCKASAYTFTSSWMQWVRQAPGQGLEWMGEIDPSDNYANYNQKFQGRVTLTVDTSTSTAYMELSSLRSEDTAVYYCASGSYFSNFFDYWGQGTLVTVSS
VL: EIVMTQSPATLSVSPGERATLSCKASQDIGSNLNWLQQKPGQAPRRLIYAASVREPGIPARFSGSRSGSEYTLTISSLQSEDFAVYYCLQYASSPWTFGQGTKVEIKR
notes: humanized, hIgG1/kappa, parental antibody 19C16
As for B2, the koff in assay [5] came out at 6.7e-07 s⁻¹.
